Data from the nanobody polyreactivity screen of Harvey et al. (2022).

Assay: yeast display, Sf9 membrane polyspecificity reagent, FACS + sequencing; frameworks hold sequencing errors
Outline: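 Nanobodies came from a synthetic yeast display library in Saccharomyces cerevisiae BJ5465, induced with galactose for 36–48 hours and stained for 1 hour at 4 °C with 10% biotinylated, detergent-solubilized Sf9 membrane reagent. Cells were enriched on streptavidin microbeads and then FACS-sorted, with low and high (top ~1%) gates set on anti-HA fluorescence for expression and streptavidin fluorescence for reagent binding. Each polyreactivity label reflects the gate a clone came from. Genes were amplified by colony PCR, sequenced by MiSeq 2 × 250 and filtered by CDR length.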

Which “polyreactivity (PSR sort gate)” value does the source give for “QVQLVESGGGLVQAGGSLRLSCAASGRTFFYYAMGWYRQAPGKDRELVAAISWGGGRTYYADSVKGRFTISRDNAKNTVYLQMNSLKPEETAVYYCAAGVYTGQHEYDYWGQGTQVTVSS” here?
Its value is “low polyreactivity”.

Which “polyreactivity (PSR sort gate)” value does the source give for “QVQLVESGGGLVQAGGSLRLSCAASGRTFFYYAMGWYRQAPGKERELVAGITSTGSSTYYADSVKGRFTISRDNAKNTLYLQMNSLKPEDTAVYYCAADRYTTYSGQWSYPYDYWGQGTQVTVSS” here?
The value was “low polyreactivity”.

For “QVQLVESGGGLVQAGGSLRLSCAASGRTFFYYKMGLSRQAPGKESELVATISWRGGSTYYADSVKGRFTISRDNAKNTVYLHINSLNPEDTSVFYCAARYRSRFDSWGQGSQVTVSS”, which “polyreactivity (PSR sort gate)” value is on record?
The value was “high polyreactivity”.

Which “polyreactivity (PSR sort gate)” value does the source give for “QVQLVESGGGLVQAGGSLRLSCAASGRTFGENTMGWYRQAPGKERELVASITWSGDSTFYADSVKGRFTISRDNAKNTVYLQMNSLKPEDTAVYYCARDDYYGSYGYDYWGQGTQVTVSS” here?
Its value is “low polyreactivity”.

Which “polyreactivity (PSR sort gate)” value does the source give for “QVQLVESGGGLVQAGGSLRLSCAASGRTFGFNVMGWYRQAPGKEREFVAAITRSGGSTYYADSVKGRFTISRDNAKNTVYLQMNSLKPEDTAVYYCAAYKFSARYYYWGQGTQVTVSS” here?
Its value is “high polyreactivity”.

For “QVQLVESGGGLVQAGGSLRLSCAASGRTFGFYAMGWYRQAPGKERELVATITYRGSGGSTYYADSVKGRFTISRDNAKNTVYLQMNSLKPEDTAVYYCAADKRYSRYFSFDYWGQGTQVTVSS”, which “polyreactivity (PSR sort gate)” value is on record?
The value was “high polyreactivity”.

Which “polyreactivity (PSR sort gate)” value does the source give for “QVQLVESGGGLVQAGGSLRLSCAASGRTFGGNAMGWYRQAPGKERELVAAISSGGSTNYADSVKGRFTISRDYAKNTVYLQMNSLKPEDSAVYYCAAGWYWWARYDYWGQGTQVTVSS” here?
The value was “low polyreactivity”.

With “QVQLVESGGGLVQAGGSLRLSCAASGRTFGGNAMGWYRQAPGKERELVAAITVSAGHTYYADSVKGRFTISRDNAKNTVYLQMNSLKPEDTAVYYCAAGVPYYWSYVWKHPRYDHWGQGTQVTVSS” as the sequence, how does the “polyreactivity (PSR sort gate)” value read?
The value was “low polyreactivity”.

Which “polyreactivity (PSR sort gate)” value does the source give for “QVQLVESGGGLVQAGGSLRLSCAASGRTFGGNVMAWYRHAPGKERELVAAITWSGGSTYYADSVKGRFTISRDNAKNTVYVQMNSLKPEDTAVYYCNALWVWYRGSSVRWVGGYDYWGQGTQVTVSS” here?
Its value is “high polyreactivity”.

Which “polyreactivity (PSR sort gate)” value does the source give for “QVQLVESGGGLVQAGGSLRLSCAASGRTFGGYAMGWYRQAPGKERELVAAINYSGGTTYYADSVKGRFTISRDNAKNTVYLQMNSLKPEDTAVYYCAASDCYGLFYGGPTWWKGHDYWGQGTQVTVSS” here?
Its value is “high polyreactivity”.

Which “polyreactivity (PSR sort gate)” value does the source give for “QVQLVESGGGLVQAGGSLRLSCAASGRTFGGYAMGWYRQAPGKERELVATISYSSGSTYYADSVKGRFTISRDNAKNTVYLQLNSLKTEDTAVYYCAAEYRSRSWRMDYWGQGTQVTVSS” here?
Its value is “high polyreactivity”.

For “QVQLVESGGGLVQAGGSLRLSCAASGRTFGGYTIGWSRQAPGKERELVAAIRWSGGRTYYADSVKGRFTISRDNAKNTVYLQMNSLKPEDTAVYYCNARYVFPYYWGQGTQVTVSS”, which “polyreactivity (PSR sort gate)” value is on record?
The value was “high polyreactivity”.

For “QVQLVESGGGLVQAGGSLRLSCAASGRTFGHYAMGWYRQAPGKERELVAAITWTGGRTYYADSVKGRFTISRDNAKNTVYLQMNSLNPEVTAVYYCNTDRSFYYPAEYDYDYWGQGTQVTVSS”, which “polyreactivity (PSR sort gate)” value is on record?
Its value is “low polyreactivity”.

For “QVQLVESGGGLVQAGGSLRLSCAASGRTFGHYAMGWYRQAPGKERELVATITGGGTTNYADSVKGRFTISRDNAKNTVYLQMNRLKPEDTAVYYCNAAWRYYWLGLRRNGYWGQGTQVTVSS”, which “polyreactivity (PSR sort gate)” value is on record?
Its value is “high polyreactivity”.

Which “polyreactivity (PSR sort gate)” value does the source give for “QVQLVESGGGLVQAGGSLRLSCAASGRTFGIKAMGWYRQAPGKERELVATITTGTSTNYAVSVKGRFTISRDNAKNTVYLQMNSLKPEDTAVYYCAARDWYGWEFDYWGQGTQVTVSA” here?
Its value is “low polyreactivity”.

For “QVQLVESGGGLVQAGGSLRLSCAASGRTFGIYALGWYRQAPGKERELVAAITGRGGSTHYADSVKGRFTISRDNAKNTVYLQMNSLKPEDTAVYYCNAEGVYYDYKYGYYGYDYWGQGTQVTVSS”, which “polyreactivity (PSR sort gate)” value is on record?
Its value is “low polyreactivity”.

For “QVQLVESGGGLVQAGGSLRLSCAASGRTFGIYVMGWYRQAPGKERELVAAIRGGGTTYYADSVKGRFTISRDNANNTVYLQMNSLKPEDTAVYYCAAESRYQRYDYWGQGTQVTVSS”, which “polyreactivity (PSR sort gate)” value is on record?
The value was “high polyreactivity”.

For “QVQLVESGGGLVQAGGSLRLSCAASGRTFGKNAMGWYRQAPGKEREFVAAITSRGGSTYYADSVKGRFTISRDNAKNTDYLQMNRLKPEDTAVYYCNREFKRQSQRTEHYYWGQGTQVTVSS”, which “polyreactivity (PSR sort gate)” value is on record?
Its value is “low polyreactivity”.

Which “polyreactivity (PSR sort gate)” value does the source give for “QVQLVESGGGLVQAGGSLRLSCAASGRTFGKNAMGWYRQAPGKEREFVAAITSRGGSTYYADSVKGRFTISRDNAKNTVYLQMNSLKPEDTAVYYCNREYKRPSQRTEHYYWGQGTQVTVSS” here?
The value was “low polyreactivity”.

With “QVQLVESGGGLVQAGGSLRLSCAASGRTFGKYAMGWYRQAPGKERELVAAITGDGGSTYYADSVKGRFTISRDNAKNTVYLQMNSLKPEDTAVYYCNADPQRRNYDYWGQGTQVTVSS” as the sequence, how does the “polyreactivity (PSR sort gate)” value read?
Its value is “high polyreactivity”.

With “QVQLVESGGGLVQAGGSLRLSCAASGRTFGLYAMGWYRQAPGKERELVAAMSYSGGSTYYADSVQGRFTISRDNAKNTVYLQMNSLKPEDTAVYYCAAVYYYASRTSKQPYYDWGQGTQVTVSS” as the sequence, how does the “polyreactivity (PSR sort gate)” value read?
The value was “high polyreactivity”.

For “QVQLVESGGGLVQAGGSLRLSCAASGRTFGLYAMRWYRQAPGKERELVAAISIRGGATYYAVSVKGRFTISRDNAKNTVYLQMNSLKPEDSAVYYCNKGPGRWYYWGQVTQVTVSS”, which “polyreactivity (PSR sort gate)” value is on record?
The value was “low polyreactivity”.

For “QVQLVESGGGLVQAGGSLRLSCAASGRTFGLYDMGWYRQAPGKERELVAGITRRGGRTYYADSVKGRFTISRDNAKNTVYLQMNSLKPEDTAVYYCAVVTRYRYDYWGQGTQVTVSS”, which “polyreactivity (PSR sort gate)” value is on record?
Its value is “high polyreactivity”.

Which “polyreactivity (PSR sort gate)” value does the source give for “QVQLVESGGGLVQAGGSLRLSCAASGRTFGNNAMGWSRPAPGKERELVAAITASGGRTYYADSVKGRFTISRDNAKTTVYLQMNSLKPEDTAVYYCADGGPRVNGYGGYYWGQGTQVTVSS” here?
The value was “high polyreactivity”.

With “QVQLVESGGGLVQAGGSLRLSCAASGRTFGNYAMGWYRQAPGKERELVAAITSAGRTYYADSVKGRFTISRDNAKNTVYLQMNSLKPEDTAVYYCNANRVSPYYWGQGTQVTVSS” as the sequence, how does the “polyreactivity (PSR sort gate)” value read?
Its value is “low polyreactivity”.

Which “polyreactivity (PSR sort gate)” value does the source give for “QVQLVESGGGLVQAGGSLRLSCAASGRTFGNYAMGWYRQARGKERELVASISRRGGSTYYADSVKGRFTISRENAKNTVYLQMTSLKPDDTAVFYCATLRGRQRFGYDYWGQGTQVTVSS” here?
The value was “high polyreactivity”.

Which “polyreactivity (PSR sort gate)” value does the source give for “QVQLVESGGGLVQAGGSLRLSCAASGRTFGPYAMGWYRQAPGKEREFVAAMSYSGGSTYYADSVKGRFTISRDTAKNTVFLQINSLKPEDTAVYYCAVDIDSNSGTRDYWGQGTQVTVSS” here?
The value was “low polyreactivity”.

Which “polyreactivity (PSR sort gate)” value does the source give for “QVQLVESGGGLVQAGGSLRLSCAASGRTFGQNAMGWYRPAPGKERELVAAISRGGSTYYADSVKGRFTISRDNAKNTVYLQMNSLKPEDTAVYYCAAAKKSGVYLRLNYWGQGTQVTVSS” here?
Its value is “high polyreactivity”.

With “QVQLVESGGGLVQAGGSLRLSCAASGRTFGQNTMGWYRQAPGIERELVAAINWSGGSTYYADSVKGRFTISRDIAKNTVYVQMNSLKPEDTAVYYCAVRGYWGQGTQVTVSS” as the sequence, how does the “polyreactivity (PSR sort gate)” value read?
The value was “low polyreactivity”.

With “QVQLVESGGGLVQAGGSLRLSCAASGRTFGQNTMGWYRQAPGKERELVATITSDGGDTYYADSVKGRFTISRDNAKNTVYLQMNSLKPEDTAVYYCKADYAGPKYVGYTFRSFTMDYWGQGTQVTVSS” as the sequence, how does the “polyreactivity (PSR sort gate)” value read?
The value was “low polyreactivity”.

With “QVQLVESGGGLVQAGGSLRLSCAASGRTFGRNAMGWYRQAPGKEREFVAAISYRGGSTYYADSVKGRFTISRDNAKNTVYLQMNSLKPEDTAVYYCAVRFSAPGYYYWGQGTQVTVSS” as the sequence, how does the “polyreactivity (PSR sort gate)” value read?
Its value is “high polyreactivity”.

Which “polyreactivity (PSR sort gate)” value does the source give for “QVQLVESGGGLVQAGGSLRLSCAASGRTFGRNAMGWYRQAPGKERELVAAISSSGTRTYYADSVKGRFTISRDNAKNTVYLQMNSLKPEDTAVYYCAVDTLRYKMDYWGQGTQVTVSS” here?
The value was “low polyreactivity”.
